Target: MUC-1 gene product, the membrane mucin glycoprotein (polymorphic epithelial mucin or PEM) (human, UniProt P15941 24-1255)
Assay: flow cytometry equilibrium binding on MCF7 cells

Sequence of MUC-1 gene product, the membrane mucin glycoprotein (polymorphic epithelial mucin or PEM) (P15941 24-1255): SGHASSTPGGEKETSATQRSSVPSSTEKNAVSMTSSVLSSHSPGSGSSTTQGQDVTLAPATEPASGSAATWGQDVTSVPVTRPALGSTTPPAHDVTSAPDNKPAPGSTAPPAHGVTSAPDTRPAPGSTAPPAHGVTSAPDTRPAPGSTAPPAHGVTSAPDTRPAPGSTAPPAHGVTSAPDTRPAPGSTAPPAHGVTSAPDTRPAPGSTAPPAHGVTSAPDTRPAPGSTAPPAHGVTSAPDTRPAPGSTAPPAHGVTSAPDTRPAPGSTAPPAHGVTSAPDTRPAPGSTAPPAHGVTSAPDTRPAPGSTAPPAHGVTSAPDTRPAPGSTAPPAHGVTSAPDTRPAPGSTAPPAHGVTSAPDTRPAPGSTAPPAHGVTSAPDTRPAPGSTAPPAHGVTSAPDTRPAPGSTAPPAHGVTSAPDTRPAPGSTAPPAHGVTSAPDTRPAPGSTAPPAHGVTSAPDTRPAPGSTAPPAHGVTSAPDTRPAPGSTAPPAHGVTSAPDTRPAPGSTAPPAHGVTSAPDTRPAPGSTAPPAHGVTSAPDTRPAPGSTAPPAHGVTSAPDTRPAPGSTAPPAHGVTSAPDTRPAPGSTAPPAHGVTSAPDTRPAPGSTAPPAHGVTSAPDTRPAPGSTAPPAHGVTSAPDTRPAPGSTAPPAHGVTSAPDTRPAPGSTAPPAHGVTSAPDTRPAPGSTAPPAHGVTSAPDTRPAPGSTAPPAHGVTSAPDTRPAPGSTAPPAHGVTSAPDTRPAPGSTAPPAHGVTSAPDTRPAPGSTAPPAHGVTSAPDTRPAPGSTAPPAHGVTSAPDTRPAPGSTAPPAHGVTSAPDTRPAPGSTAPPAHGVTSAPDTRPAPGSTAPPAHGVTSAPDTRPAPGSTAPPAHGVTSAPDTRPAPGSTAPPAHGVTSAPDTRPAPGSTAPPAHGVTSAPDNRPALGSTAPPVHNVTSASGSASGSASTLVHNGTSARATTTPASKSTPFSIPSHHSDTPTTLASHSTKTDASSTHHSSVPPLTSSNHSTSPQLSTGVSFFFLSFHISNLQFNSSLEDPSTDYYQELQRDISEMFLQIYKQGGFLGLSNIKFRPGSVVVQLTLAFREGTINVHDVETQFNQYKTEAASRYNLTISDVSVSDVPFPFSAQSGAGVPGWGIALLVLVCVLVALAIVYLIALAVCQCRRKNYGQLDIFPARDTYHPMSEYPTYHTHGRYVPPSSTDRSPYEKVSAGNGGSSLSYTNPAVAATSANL

B1: huHMFG1 wild-type scFv 4.10W (scFv)
scFv: QVQLVQSGAEVKKPGASVKVSCKASGYTFSAYWIEWVRQAPGKGLEWVGEILPGSNNSRYNEKFKGRVTVTRDTSTNTAYMELSSLRSEDTAVYYCARSYDFAWFAYWGQGTLVTVSSGGGGSGGGGSGGGGSDIQMTQSPSSLSASVGDRVTITCKSSQSLLYSSNQKIYLAWYQQKPGKAPKLLIYWASTRESGVPSRFSGSGSGTDFTFTISSLQPEDIATYYCQQYYRYPRTFGQGTKVEIKR
Q: B1 was tested. Which Kd did it give?
A: 114 nM
